Laboratory results: article PMC3366936

Biological target: OPTN Δ1-394 in pCMV-BD (mammalian two-hybrid fusion) (UniProt Q96CV9)
Assay: mammalian two-hybrid (luciferase reporter)
Parameters: unit not given here
Conditions: HEK293 cells; 48 h after transfection; n = 3; parent: est. 6.5; read off a plot

UniProt Q96CV9, sequence (Q96CV9 395-577, stated change not applied): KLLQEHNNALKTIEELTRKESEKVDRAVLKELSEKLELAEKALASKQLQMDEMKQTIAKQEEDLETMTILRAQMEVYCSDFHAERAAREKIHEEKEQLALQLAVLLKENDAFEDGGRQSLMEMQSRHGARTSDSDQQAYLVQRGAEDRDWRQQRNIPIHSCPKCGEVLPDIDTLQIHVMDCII

Row | Substance | response
1 | E3-14.7K wild type in pCMV-AD (mammalian two-hybrid fusion) R17D; L18Y; L19K; E20D; R21E | 2.8
2 | E3-14.7K wild type in pCMV-AD (mammalian two-hybrid fusion) P87D; I88Y; T89K; V90D; T91E | 0.6
3 | E3-14.7K wild type in pCMV-AD (mammalian two-hybrid fusion) I12D; N13Y; T14K; E15D; Q16E | 4.6
4 | E3-14.7K wild type in pCMV-AD (mammalian two-hybrid fusion) M82D; V83Y; G84K; E85D; K86E | 0.2
5 | E3-14.7K wild type in pCMV-AD (mammalian two-hybrid fusion) R22D; K23Y; A24K; A25D; S26E | 2.9
6 | E3-14.7K wild type in pCMV-AD (mammalian two-hybrid fusion) T62D; T63Y; T64K; G65D; N66E | 0.5
7 | E3-14.7K wild type in pCMV-AD (mammalian two-hybrid fusion) H42D; Q43Y; C44K; K45D; R46E | 0.1
8 | E3-14.7K wild type in pCMV-AD (mammalian two-hybrid fusion) M38Y; V39K; N40D; L41E | 2.2
9 | E3-14.7K wild type in pCMV-AD (mammalian two-hybrid fusion) T2D; E3Y; S4K; L5D; D6E | 5.1
10 | E3-14.7K wild type in pCMV-AD (mammalian two-hybrid fusion) H102D; F103Y; P104K; Y105D; Q106E | 11
11 | E3-14.7K wild type in pCMV-AD (mammalian two-hybrid fusion) L7D; E8Y; L9K; G11E | 6
12 | E3-14.7K wild type in pCMV-AD (mammalian two-hybrid fusion) E27D; R28Y; E29K; R30D; L31E | 4.5
